Experimental data from publication PMC8704557 (International Journal of Molecular Sciences, 2021).

Experiments:
[1] = target: STK16540 protein (product of stk_16540), alpha subunit of the Dye-LDH complex (Sulfurisphaera tokodaii); experiment: native gel or EMSA; native gradient PAGE (Novex NativePAGE Bis-Tris gel system) of the purified enzyme; single protein of approximately 253 kDa; subunit masses from SDS-PAGE
[2] = target: T1, Dye-LDH complex (recombinant dye-linked L-lactate dehydrogenase, STK16540 (α) / STK16550 (β), α3β3) (Sulfurisphaera tokodaii, UniProt Q970D7); experiment: flavin extracted from purified enzyme, identified by HPLC; format: binding; conditions: prosthetic group co-purified with the complex
T1 construct: gene ST1655; gene cluster stk_16540-16570 expressed in Sulfolobus acidocaldarius SK1; N-terminal His-tag on STK16540 kept; purified α3β3 heterohexamer, about 253 kDa (subunits 30 and 40 kDa by SDS-PAGE; STK16550 43 kDa); stk_16560 and stk_16570 products not in the purified complex; with Dye-linked L-lactate dehydrogenase, alpha subunit (hypothetical protein with Fe-S cluster motif)
T1 sequence (Q970D7 1-383): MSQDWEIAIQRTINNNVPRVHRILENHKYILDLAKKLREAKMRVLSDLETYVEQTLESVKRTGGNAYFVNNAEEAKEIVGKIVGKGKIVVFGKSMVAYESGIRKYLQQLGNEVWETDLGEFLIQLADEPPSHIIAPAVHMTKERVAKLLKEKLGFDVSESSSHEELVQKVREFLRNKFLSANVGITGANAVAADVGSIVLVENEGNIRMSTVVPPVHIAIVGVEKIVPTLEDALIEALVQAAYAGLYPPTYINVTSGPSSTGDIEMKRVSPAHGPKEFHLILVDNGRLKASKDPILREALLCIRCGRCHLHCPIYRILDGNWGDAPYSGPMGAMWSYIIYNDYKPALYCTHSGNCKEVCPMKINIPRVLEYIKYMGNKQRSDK
T1 sequence (Q970D8 1-287 partner): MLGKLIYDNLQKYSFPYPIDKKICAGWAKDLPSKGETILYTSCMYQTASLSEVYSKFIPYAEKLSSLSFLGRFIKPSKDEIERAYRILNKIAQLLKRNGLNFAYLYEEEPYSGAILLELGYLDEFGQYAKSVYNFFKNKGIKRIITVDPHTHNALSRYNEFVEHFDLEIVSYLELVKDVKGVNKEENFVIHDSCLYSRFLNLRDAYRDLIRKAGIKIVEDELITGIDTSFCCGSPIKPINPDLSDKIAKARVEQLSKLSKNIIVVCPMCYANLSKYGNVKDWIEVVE

purified protein [3] = substrate: O=C1C(Cl)=CC(=Nc2ccc(O)cc2)C=C1Cl; experiment: purified protein; format: biochemical, Sulfurisphaera tokodaii; conditions: electron acceptor, standard assay 40 mM L-lactate, 200 mM PIPES-NaOH pH 6.5, 60 °C, free enzyme
purified protein [4] = substrate: C[C@H](O)C(=O)O; experiment: purified protein; conditions: electron donor, standard assay 0.2 mM DCIP, 200 mM PIPES-NaOH pH 6.5, 60 °C, free enzyme

**Q.** “Dye-LDH homolog (product of stk_16550), beta subunit of the Dye-LDH complex (enzyme)” was tested. Which stoichiometry N (β per α (3:3)) [1] did it give?
**A.** 1

**Q.** `Cc1cc2nc3c(=O)[nH]c(=O)nc-3n(C[C@H](O)[C@H](O)[C@H](O)COP(=O)(O)O)c2cc1C` [FMN] was tested. Which “flavin extracted from purified enzyme, identified by HPLC” value [2] did it give?
**A.** the flavin compound in the enzyme extract was identified as FMN

B1: Dye-LDH complex (recombinant dye-linked L-lactate dehydrogenase, STK16540 (α) / STK16550 (β), α3β3) (Sulfurisphaera tokodaii str. 7) (protein)
chain: T1 sequence (Q970D7 1-383)
notes: gene cluster stk_16540-16570 expressed in Sulfolobus acidocaldarius SK1; N-terminal His-tag on STK16540 kept; purified α3β3 heterohexamer, about 253 kDa (subunits 30 and 40 kDa by SDS-PAGE; STK16550 43 kDa); stk_16560 and stk_16570 products not in the purified complex; with Dye-linked L-lactate dehydrogenase, alpha subunit (hypothetical protein with Fe-S cluster motif)
**Q.** What does the source list for B1?
**A.** Km (purified protein [3]): 0.2 mM; Km (purified protein [4]): 0.199 mM
